Measured values: the supplement of paper PMC7877785
± gives the uncertainty stated by the source.

Assay: self-splicing fitness, log relative to wild type (ln ratio); higher = more splicing; Tetrahymena group I intron in knt gene, E. coli kanamycin selection, DiMSum; sequences stand for … in CUCUCU…GGAGGGAAAAGUUAUCAGGCAUGCACCUGGUAGCUAGUCUUUAAACCAAUAGAUUGCAUCGGUUUAAAAGGCAAGACCGUCAAAUUGCGGGAAAGGGGUCAACAGCCGUUCAGUACCAAGUCUCAGGGGAAACUUUGAGAUGGCCUUGCAAAGGGUAUGGUAAUAAGCUGACGGACAUGGUCCUAACCACGCAGCCAAGUCCUAAGUCAACAGAUCUUCUGUUGAUAUGGAUGCAGUUCACAGACUAAAUGUCGGUCGGGGAAGAUGUAUUCUUCUCAUAAGAUAUAGUCGGACCUCUCCUUAAUGGGAGCUAGCGGAUGAAGUGAUGCAACACUGGAGCCGCUGGGAACUAAUUUGUAUGCGAAAGUAUAUUGAUUAGUUUUGGAGUACUCGUGGUCG
Method in brief: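 Fitness was computed with DiMSum as the error-weighted combination of replicate fold changes, kanamycin versus none, each normalised to wild type. The library randomised all eight intron nucleotides of the P1ex region, with the intron placed in the knt kanamycin-resistance gene on pET-22b(+) in E. coli BL21(DE3). Six replicate transformations were grown overnight at 37°C or 30°C on LB agar with or without 25 μg/mL kanamycin, plus 100 μg/mL carbenicillin, 50 μM IPTG and 0.2% rhamnose. Pooled colonies were amplicon-sequenced on an Illumina HiSeq 2500.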

Sequence	self-splicing fitness (ln) (30 °C)	self-splicing fitness (ln) (37 °C)
GAACAGCAAUAUUACGCUGU	-3.8 ± 0.14	-2.99 ± 0.19
GAACAGCAAUAUUACGGAAA	-2.42 ± 0.16	-1.12 ± 0.14
GAACAGCAAUAUUACGGAAU	-1.6 ± 0.095	-1.18 ± 0.11
GAACAGCAAUAUUACGGAGA	-1.55 ± 0.19	-1.88 ± 0.13
GAACAGCAAUAUUACGGAGU	-2.35 ± 0.066	-1.66 ± 0.1
GAACAGCAAUAUUACGGCCU	-1.14 ± 0.11	-0.067 ± 0.14
GAACAGCAAUAUUACGGCUG	-2.78 ± 0.14	-2.06 ± 0.15
GAACAGCAAUAUUACGGUAA	-1.2 ± 0.059	-0.286 ± 0.064
GAACAGCAAUAUUACGGUAU	-0.973 ± 0.053	-0.269 ± 0.074
GAACAGCAAUAUUACGGUUU	-3.41 ± 0.13	-1.34 ± 0.14
GAACAGCAAUAUUACGUCAC	-3.44 ± 0.23	-0.689 ± 0.17
GAACAGCAAUAUUACGUUUC	-4.43 ± 0.14	-2.53 ± 0.14
GAAGAGCAAUAUUACGAAUA	–	-1.63 ± 0.35
GAAGAGCAAUAUUACGAAUG	-2.23 ± 0.4	–
GAAGAGCAAUAUUACGACCA	-1.34 ± 0.14	-1.46 ± 0.36
GAAGAGCAAUAUUACGACGA	–	-2.03 ± 0.42
GAAGAGCAAUAUUACGAGCG	-3.17 ± 0.2	-0.882 ± 0.17
GAAGAGCAAUAUUACGAGUA	-3.78 ± 0.37	-2.75 ± 0.38
GAAGAGCAAUAUUACGAGUU	-2.61 ± 0.16	-2.03 ± 0.21
GAAGAGCAAUAUUACGAUCU	-1.21 ± 0.14	-0.955 ± 0.18
GAAGAGCAAUAUUACGAUUU	-1.31 ± 0.079	-1.04 ± 0.14
GAAGAGCAAUAUUACGCCCU	-2.24 ± 0.22	-1.38 ± 0.31
GAAGAGCAAUAUUACGCCGU	-2.88 ± 0.44	-2.96 ± 0.43
GAAGAGCAAUAUUACGCGCG	-2.21 ± 0.3	-1.36 ± 0.22
GAAGAGCAAUAUUACGCGUG	-2.43 ± 0.078	-1.32 ± 0.085

Sequence	self-splicing fitness (ln) (30 °C)	self-splicing fitness (ln) (37 °C)
GAAGAGCAAUAUUACGCUCG	-2.32 ± 0.21	-1.37 ± 0.21
GAAGAGCAAUAUUACGCUCU	-3.53 ± 0.23	-2.74 ± 0.24
GAAGAGCAAUAUUACGGAAC	–	-0.903 ± 0.29
GAAGAGCAAUAUUACGGAGA	-3.22 ± 0.31	-1.88 ± 0.32
GAAGAGCAAUAUUACGGCAU	-1.96 ± 0.12	-1.99 ± 0.17
GAAGAGCAAUAUUACGGGAG	-3.15 ± 0.19	-2.19 ± 0.23
GAAGAGCAAUAUUACGGGGG	-3.04 ± 0.2	-3.06 ± 0.29
GAAGAGCAAUAUUACGGUUU	-1.52 ± 0.12	-0.796 ± 0.16
GAAGAGCAAUAUUACGUACU	-2.11 ± 0.15	-0.163 ± 0.13
GAAGAGCAAUAUUACGUUCA	-1.33 ± 0.13	-0.0689 ± 0.13
GAAGAGCAAUAUUACGUUCU	-3.88 ± 0.29	-2.8 ± 0.27
GAAUAGCAAUAUUACGAAGU	–	-2.45 ± 0.2
GAAUAGCAAUAUUACGACCG	-1.03 ± 0.16	-0.447 ± 0.2
GAAUAGCAAUAUUACGAUAU	-1.43 ± 0.068	-0.744 ± 0.085
GAAUAGCAAUAUUACGAUGU	-1.3 ± 0.076	-1.04 ± 0.12
GAAUAGCAAUAUUACGCAAG	-2.44 ± 0.17	-1.54 ± 0.15
GAAUAGCAAUAUUACGCACG	-1.22 ± 0.15	-0.764 ± 0.2
GAAUAGCAAUAUUACGCAUG	-0.0618 ± 0.089	-0.902 ± 0.091
GAAUAGCAAUAUUACGCCUA	-0.724 ± 0.13	-0.0436 ± 0.16
GAAUAGCAAUAUUACGCGUG	-1.01 ± 0.075	-0.747 ± 0.094
GAAUAGCAAUAUUACGGAGC	-3.44 ± 0.26	-1.77 ± 0.21
GAAUAGCAAUAUUACGGCCG	-0.339 ± 0.18	-0.0585 ± 0.21
GAAUAGCAAUAUUACGGCCU	-0.86 ± 0.075	0.112 ± 0.12
GAAUAGCAAUAUUACGGGUU	-2.48 ± 0.14	-1.86 ± 0.17
